T1: Mouse MuSK as it stands on mouse muscle (neuromuscular junctions, C2C12 myotubes) (mouse, UniProt Q61006 22-868)
T1 sequence (looked up): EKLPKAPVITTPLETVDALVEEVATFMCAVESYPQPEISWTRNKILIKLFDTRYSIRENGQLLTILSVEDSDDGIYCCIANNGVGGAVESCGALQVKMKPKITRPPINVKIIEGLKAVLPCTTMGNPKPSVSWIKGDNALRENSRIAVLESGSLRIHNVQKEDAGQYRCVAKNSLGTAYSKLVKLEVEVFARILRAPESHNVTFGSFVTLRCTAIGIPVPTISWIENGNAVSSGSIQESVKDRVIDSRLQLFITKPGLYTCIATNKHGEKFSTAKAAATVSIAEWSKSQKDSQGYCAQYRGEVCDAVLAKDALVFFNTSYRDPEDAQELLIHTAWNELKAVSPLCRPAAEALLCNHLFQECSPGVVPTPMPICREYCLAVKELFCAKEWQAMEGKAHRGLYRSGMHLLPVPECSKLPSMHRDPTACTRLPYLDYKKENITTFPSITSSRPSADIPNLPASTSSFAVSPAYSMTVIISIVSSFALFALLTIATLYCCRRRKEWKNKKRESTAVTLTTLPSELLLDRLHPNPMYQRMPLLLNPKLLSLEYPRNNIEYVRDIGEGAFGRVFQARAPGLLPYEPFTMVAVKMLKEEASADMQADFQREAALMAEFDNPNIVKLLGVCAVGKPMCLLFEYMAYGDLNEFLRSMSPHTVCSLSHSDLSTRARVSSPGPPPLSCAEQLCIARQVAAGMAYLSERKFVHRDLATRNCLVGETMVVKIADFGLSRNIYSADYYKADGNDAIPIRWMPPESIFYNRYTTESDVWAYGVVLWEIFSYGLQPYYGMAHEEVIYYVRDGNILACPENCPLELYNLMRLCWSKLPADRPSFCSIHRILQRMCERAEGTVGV

T2: Human MuSK (R&D Systems, cat. 10189-MK, histidine tag) (human, UniProt O15146 24-495)
T2 construct: Bought protein; also called human monomeric MuSK-6xhis; not shown: histidine tag (6xhis)
T2 sequence: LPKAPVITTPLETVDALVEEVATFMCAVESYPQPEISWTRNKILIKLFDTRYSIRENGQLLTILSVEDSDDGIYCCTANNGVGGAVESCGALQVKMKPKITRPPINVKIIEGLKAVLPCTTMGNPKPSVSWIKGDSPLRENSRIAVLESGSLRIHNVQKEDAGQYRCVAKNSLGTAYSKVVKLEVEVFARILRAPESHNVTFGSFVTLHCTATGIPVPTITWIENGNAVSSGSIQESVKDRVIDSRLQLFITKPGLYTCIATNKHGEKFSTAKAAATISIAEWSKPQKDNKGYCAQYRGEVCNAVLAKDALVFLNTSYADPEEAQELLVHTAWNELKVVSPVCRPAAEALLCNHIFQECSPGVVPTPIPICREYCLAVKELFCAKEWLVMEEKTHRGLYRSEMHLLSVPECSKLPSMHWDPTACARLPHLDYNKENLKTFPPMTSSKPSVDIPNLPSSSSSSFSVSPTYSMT

T3: human monomeric MuSK FLAG streptavidin (in house produced, batch 27-6-2019) (human, UniProt O15146 24-495)
T3 construct: also called full length MuSK; not shown: FLAG and streptavidin tags
T3 sequence: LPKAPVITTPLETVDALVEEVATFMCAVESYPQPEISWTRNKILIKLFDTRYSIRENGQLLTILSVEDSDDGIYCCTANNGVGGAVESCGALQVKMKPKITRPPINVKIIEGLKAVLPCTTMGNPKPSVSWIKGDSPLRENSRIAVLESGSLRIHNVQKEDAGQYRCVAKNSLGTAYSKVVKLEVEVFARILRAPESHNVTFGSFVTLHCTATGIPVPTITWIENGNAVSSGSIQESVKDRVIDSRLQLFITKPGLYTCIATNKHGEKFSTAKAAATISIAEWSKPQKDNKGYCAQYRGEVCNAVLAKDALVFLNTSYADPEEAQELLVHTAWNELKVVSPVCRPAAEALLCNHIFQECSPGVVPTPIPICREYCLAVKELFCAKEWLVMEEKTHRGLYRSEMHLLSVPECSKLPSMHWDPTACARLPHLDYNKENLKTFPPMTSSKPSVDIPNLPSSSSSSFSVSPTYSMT


Legend:
[1] = target: T1, Mouse MuSK as it stands on mouse muscle …; test: cell-based or functional assay
[2] = target: T2, Human MuSK (R&D Systems, cat. 10189-MK, …); test: SPR (Biacore), MuSK-coated chip presaturated with 500 nM 3D10a (competitor)
Description: (§1) A chip was coated with ˜5000 RU of human MuSK (Lot nr DHUCO 11908A, batch nr 1089_MK). In a first experiment the saturating concentration of the pre-leads was determined. This is the concentration where the amplitude of a specific pre-lead doesn't increase anymore when additional pre-lead is injected on the immobilized MuSK.

[3] = target: T3, human monomeric MuSK FLAG streptavidin …; test: epitope binning ELISA (coated anti-MuSK Fab, MuSK, IgG, anti-Fc HRP); competitor: 3D10a
Description: (§2) For epitope binning—An ELISA plate was coated at 1 μg/ml of the anti-MuSK Fabs and incubated overnight at 4° C. Next, the plate was wash with PBS followed by blocking with 1% casein in PBS for one hour. After washing the plate, 1 μg/ml of human monomeric MuSK (in house produced, batch 27-6-2019) was incubated for one hour at RT. The plate was washed and anti-MuSK antibodies at 0.3-10 μg/ml were added to the plate and incubated for one hour at RT. After washing the plate, detection antibody (goat anti-human Fc HRP (Jackson Immunoresearch cat. 109-035-098)) was added at 5000 fold dilution in PBS 0.1% casein. The plate was incubated for one hour at RT and washed with PBS-T. TMB was added and the reaction was stopped by adding H2504. […]
(§3) For the epitope binning ELISA, a plate was coated with anti-MuSK Fab and human monomeric MuSK was added after blocking the plate. Next the different antibodies were added and allowed to bind.

[4] = target: T2, Human MuSK (R&D Systems, cat. 10189-MK, …); test: SPR (Biacore), antibody captured on anti-hFc chip; average of 0.3125-10 nM; dissociation pH 7.4
Excerpt: (§4) In order to study pH dependent binding of our antibodies to MuSK, the Biacore was used with the same setup as described in the paragraph entitled “Binding affinity for mouse, human and rhesus monkey recombinant MuSK in Biacore”. 6. […] For the other antibodies there is no real difference observed between pH 7.4 and 5.5.

[5] = target: T2, Human MuSK (R&D Systems, cat. 10189-MK, …); test: SPR (Biacore), antibody captured on anti-hFc chip; 5 nM; dissociation pH 5.5
Excerpt: as §4

[6] = target: T2, Human MuSK (R&D Systems, cat. 10189-MK, …); test: SPR (Biacore), MuSK-coated chip, antibody alone (run of first antibody 3D9b)
Description: as §1

[7] = target: T3, human monomeric MuSK FLAG streptavidin …; test: epitope binning ELISA (coated anti-MuSK Fab, MuSK, IgG, anti-Fc HRP); competitor: 3B5wt
Description: as §2, §3

[8] = target: T1, Mouse MuSK as it stands on mouse muscle …; test: cell-based or functional assay; remark: listed apart in the source

Binder | MuSK phosphorylation, % versus agrin (C2C12 myotubes) [1] [% versus agrin] | amplitude of prelead after presaturating MuSK (RU) [2] [RU] | extra amplitude (%) [2] [%] | normalized extra amplitude (%) [2] [%] | OD 450 nm [3] [OD] | koff [4] [s⁻¹] | koff [5] [s⁻¹] | amplitude of prelead without presaturating MuSK (RU) [6] [RU] | OD 450 nm [7] [OD] | AChR clusters larger or equal to 3 µm compared to agrin; antibody 0.11 µg/mL [8] | AChR clusters larger or equal to 3 µm compared to agrin; antibody 1.1 µg/mL [8] | AChR clusters larger or equal to 3 µm compared to agrin; antibody 11 µg/mL [8] | AChR clusters larger or equal to 3 µm compared to agrin; antibody 110 µg/mL [8]
3D10a (antibody, human IgG1, kappa, L234A L235A, V domains shown) VH: EVQLVESGGGLVKPGGSLRLSCAASGFTFSASTMAWVRQAPGKGLEWVSSVSGDSHHIYYADSLKGRFTISRDNAKNSLYLQMNSLRAEDTAVYYCARERLLRLGVGFDSWGQGTLVTVSS VL: DIQMTQSPSSLSASVGDRVTITCRASQRISGFVNWYQQKPGKAPKLLIYAASTLQSGVPSRFSGSGSGTDFTLTISSLQPEDFATYYCQQSYSPLYTFGQGTKLEIKR | 83 | 56 | 1.8 | 0.2 | 0.049 | 0.00016 | 0.0001 | 189 | 2.12 | 80 % of agrin | 79 % of agrin | 76 % of agrin | 73 % of agrin
3D9b (antibody, human IgG1, kappa, L234A L235A, V domains shown) VH: EVQLVESGGGLVKPGGSLRLSCAASGFTFSTYTMHWVRQAPGKGLEWVSSISSRSAYKYYADSVKGRFTISRDNAKNSLYLQMNSLRAEDTAVYYCARDFFQLGPPRFDSWGQGTLVTVSS VL: DIQMTQSPSSLSASVGDRVTITCRASQRISSFLNWYQQKPGKAPKLLIYGASNLQSGVPSRFSGSGSGTDFTLTISSLQPEDFATYYCQQSYSPSYTFGQGTKLEIKR | 205 | 169 | 8 | 6.4 | 0.06 | 0.00012 | 4e-05 | 3970 | 2.66 | 65 % of agrin | 99 % of agrin | 93 % of agrin | 84 % of agrin

More lines, now with the values ahead:

MuSK phosphorylation, % versus agrin (C2C12 myotubes) [1] [% versus agrin] | amplitude of prelead after presaturating MuSK (RU) [2] [RU] | extra amplitude (%) [2] [%] | normalized extra amplitude (%) [2] [%] | OD 450 nm [3] [OD] | koff [4] [s⁻¹] | koff [5] [s⁻¹] | amplitude of prelead without presaturating MuSK (RU) [6] [RU] | OD 450 nm [7] [OD] | AChR clusters larger or equal to 3 µm compared to agrin; antibody 0.11 µg/mL [8] | AChR clusters larger or equal to 3 µm compared to agrin; antibody 1.1 µg/mL [8] | AChR clusters larger or equal to 3 µm compared to agrin; antibody 11 µg/mL [8] | AChR clusters larger or equal to 3 µm compared to agrin; antibody 110 µg/mL [8] | Binder
112 | 42 | 1.6 | 0 | 0.008 | 0.00014 | 0.00018 | 188 | 0.882 | 63 % of agrin | 80 % of agrin | 80 % of agrin | 75 % of agrin | 4D3 (antibody, human IgG1, kappa, L234A L235A, V domains shown) VH: EVQLVESGGGLVKPGGSLRLSCAASGFTFSSYTMTWVRQAPGKGLEWVSSISSGGHYIYYTDSLKGRFTISRDNAKNSLYLQMNSLRAEDTAVYYCARERLLRLGVGFDFWGQGTLVTVSS VL: DIQMTQSPSSLSASVGDRVTITCRASQSISGYLNWYQQKPGKAPKLLIYAASTLQSGVPSRFSGSGSGTDFTLTISSLQPEDFATYYCQQSYSALYTFGQGTKLEIKR
100 | 26 | 1 | -0.6 | 0.057 | 8e-05 | 0.0002 | 235 | 2.2 | 74 % of agrin | 57 % of agrin | 62 % of agrin | 61 % of agrin | 3F6c (antibody, human IgG1, kappa, L234A L235A, V domains shown) VH: EVQLVESGGGLVKPGGSLRLSCAASGFTFSSYTMDWVRQAPGKGLEWVSSIGSNGDYIYYADSVRGRFTISRDNAKNSLYLQMNSLRAEDTAVYYCARGQLAVAGTHFDYWGQGTLVTVSS VL: DIQMTQSPSSLSASVGDRVTITCRASQKVNKYVNWYQQKPGKAPKLLIYAASTLQSGVPSRFSGSGSGTDFTLTISSLQPEDFATYYCQQSYSPLSTFGQGTKLEIKR
